Source: paper PMC6816459 (Methods in molecular biology (Clifton, N.J.), 2019)

Molecular target: the molecule itself

B1: C. elegans Vps4 (enzyme, UniProt Q9BL83 1-430, looked up)
chain: MSVPALQKAIELVTKATEEDTAGRYDQALRLYDQAIEYFLHAIKYESQGDKQRNAIRDKVGQYLNRAEQIKTHLKDGKTQKKPVKDGKDDSDEDEDKKKFQDKLSGAIVMEKPNVKWTDIAGLEGAKEALKEAVILPIKFPQLFTGNRKPWQGILLFGPPGTGKSYIAKAVATEAGESTFFSISSSDLMSKWLGESEKLVKNLFALAREHKPSIIFIDEIDSLCSARSDNESESARRIKTEFMVQMQGVGLNNDGILVLGATNIPWILDSAIRRRFEKRIYIPLPDIHARKEMFRIDVGKNYNTLTDQDFKVLAERCEGYSGYDISILVKDALMQPVRRVQSATHFKHVSGPSPKDPNVIAHDLLTPCSPGDPHAIAMNWLDVPGDKLANPPLSMQDISRSLASVKPTVNNTDLDRLEAFKNDFGQDGQE
For B1, the “stoichiometry N” value was 6.
